Source: the supplement of paper PMC5998384

Legend:
HeLa Kyoto [1] = test: solubility in G1/S (NP-40 vs SDS abundance) (log2 ratio); higher = more soluble; conditions: cell cycle stage: G1/S
HeLa Kyoto [2] = test: melting temperature (median over replicates), in situ; higher = more thermally stable
HeLa Kyoto [3] = test: solubility change mitosis vs G1/S (difference of NP-40 vs SDS log2 ratios) (log2 ratio difference); higher = more soluble in mitosis
HeLa Kyoto [4] = test: thermal stability score vs G1/S (z-score of summed log2 fold changes over temperatures); higher = more thermally stable than in G1/S
[5] = cell cycle stage: early G1 (4.5 h after nocodazole release)
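For melting temperature (median over replicates), in situ in this document: HeLa Kyoto cells synchronized by double thymidine or nocodazole block, proteins quantified by TMT10plex mass spectrometry, three independent biological replicates.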
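For solubility change mitosis vs G1/S (difference of NP-40 vs SDS log2 ratios) in this document: synchronized HeLa Kyoto cells (double thymidine block for G1/S, nocodazole release for mitosis), protein amounts in NP-40 versus SDS lysates quantified by mass spectrometry, three biological replicates.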
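For solubility in G1/S (NP-40 vs SDS abundance) in this document: HeLa Kyoto cells arrested at G1/S by double thymidine block, proteins quantified by TMT10plex mass spectrometry in mild NP-40 versus SDS extracts, three biological replicates.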
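For thermal stability score vs G1/S (z-score of summed log2 fold changes over temperatures) in this document: synchronized HeLa Kyoto cells, proteins quantified by TMT10plex mass spectrometry, three biological replicates, mitosis taken 0.5 h after nocodazole release, G1/S directly after double thymidine block.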

Sequence | solubility in G1/S (log2) (HeLa Kyoto [1]) | melting temperature (HeLa Kyoto [2]; cell cycle stage: G1/S) [°C] | melting temperature (HeLa Kyoto [2]; cell cycle stage: mitosis) [°C] | solubility change mitosis (log2) (HeLa Kyoto [3]) | thermal stability score (HeLa Kyoto [4]; [5]) | thermal stability score (HeLa Kyoto [4]; cell cycle stage: mitosis)
MQKASVLLFLAWVCFLFYAGIALFTSGFLLTRLELTNHSSCQEPPGPGSLPWGSQGKPGACWMASRFSRVVLVLIDALRFDFAQPQHSHVPREPPVSLPFLGKLSSLQRILEIQPHHARLYRSQVDPPTTTMQRLKALTTGSLPTFIDAGSNFASHAIVEDNLIKQLTSAGRRVVFMGDDTWKDLFPGAFSKAFFFPSFNVRDLDTVDNGILEHLYPTMDSGEWDVLIAHFLGVDHCGHKHGPHHPEMAKKLSQMDQVIQGLVERLENDTLLVVAGDHGMTTNGDHGGDSELEVSAALFLYSPTAVFPSTPPEEPEVIPQVSLVPTLALLLGLPIPFGNIGEVMAELFSGGEDSQPHSSALAQASALHLNAQQVSRFLHTYSAATQDLQAKELHQLQNLFSKASADYQWLLQSPKGAEATLPTVIAELQQFLRGARAMCIESWARFSLVRMAGGTALLAASCFICLLASQWAISPGFPFCPLLLTPVAWGLVGAIAYAGLLGTIELKLDLVLLGAVAAVSSFLPFLWKAWAGWGSKRPLATLFPIPGPVLLLLLFRLAVFFSDSFVVAEARATPFLLGSFILLLVVQLHWEGQLLPPKLLTMPRLGTSATTNPPRHNGAYALRLGIGLLLCTRLAGLFHRCPEETPVCHSSPWLSPLASMVGGRAKNLWYGACVAALVALLAAVRLWLRRYGNLKSPEPPMLFVRWGLPLMALGTAAYWALASGADEAPPRLRVLVSGASMVLPRAVAGLAASGLALLLWKPVTVLVKAGAGAPRTRTVLTPFSGPPTSQADLDYVVPQIYRHMQEEFRGRLERTKSQGPLTVAAYQLGSVYSAAMVTALTLLAFPLLLLHAERISLVFLLLFLQSFLLLHLLAAGIPVTTPGPFTVPWQAVSAWALMATQTFYSTGHQPVFPAIHWHAAFVGFPEGHGSCTWLPALLVGANTFASHLLFAVGCPLLLLWPFLCESQGLRKRQQPPGNEADARVRPEEEEEPLMEMRLRDAPQHFYAALLQLGLKYLFILGIQILACALAASILRRHLMVWKVFAPKFIFEAVGFIVSSVGLLLGIALVMRVDGAVSSWFRQLFLAQQR [PIGO] | -0.193 | 53.6 | 52.7 | 0.0305 | -0.415 | -0.374
MQKIKSLMTRQGLKSPQESLSDLGAIESLRVPGKEEFRELREQPSDPQAEQELINSIEQVYFSVDSFDIVKYELEKLPPVLNLQELEAYRDKLKQQQAAVSKKVADLILEKQPAYVKELERVTSLQTGLQLAAVICTNGRRHLNIAKEGFTQASLGLLANQRKRQLLIGLLKSLRTIKTLQRTDVRLSEMLEEEDYPGAIQLCLECQKAASTFKHYSCISELNSKLQDTLEQIEEQLDVALSKICKNFDINHYTKVQQAYRLLGKTQTAMDQLHMHFTQAIHNTVFQVVLGYVELCAGNTDTKFQKLQYKDLCTHVTPDSYIPCLADLCKALWEVMLSYYRTMEWHEKHDNEDTASASEGSNMIGTEETNFDRGYIKKKLEHGLTRIWQDVQLKVKTYLLGTDLSIFKYDDFIFVLDIISRLMQVGEEFCGSKSEVLQESIRKQSVNYFKNYHRTRLDELRMFLENETWELCPVKSNFSILQLHEFKFMEQSRSPSVSPSKQPVSTSSKTVTLFEQYCSGGNPFEIQANHKDEETEDVLASNGYESDEQEKSAYQEYDSDSDVPEELKRDYVDEQTGDGPVKSVSRETLKSRKKSDYSLNKVNAPILTNTTLNVIRLVGKYMQMMNILKPIAFDVIHFMSQLFDYYLYAIYTFFGRNDSLESTGLGLSSSRLRTTLNRIQESLIDLEVSADPTATLTAAEERKEKVPSPHLSHLVVLTSGDTLYGLAERVVATESLVFLAEQFEFLQPHLDAVMPAVKKPFLQQFYSQTVSTASELRKPIYWIVAGKALDYEQMLLLMANVKWDVKEIMSQHNIYVDALLKEFEQFNRRLNEVSKRVRIPLPVSNILWEHCIRLANRTIVEGYANVKKCSNEGRALMQLDFQQFLMKLEKLTDIRPIPDKEFVETYIKAYYLTENDMERWIKEHREYSTKQLTNLVNVCLGSHINKKARQKLLAAIDDIDRPKR [VPS50] | -0.0656 | 50.8 | 49.6 | -0.108 | 0.281 | 0.511
MQPASAKWYDRRDYVFIEFCVEDSKDVNVNFEKSKLTFSCLGGSDNFKHLNEIDLFHCIDPNDSKHKRTDRSILCCLRKGESGQSWPRLTKERAKLNWLSVDFNNWKDWEDDSDEDMSNFDRFSEMMNNMGGDEDVDLPEVDGADDDSQDSDDEKMPDLE [PTGES3] | 0.0757 | 48.7 | 49.9 | -0.00282 | 3.93 | 3.45
MQPDMSLNVIKMKSSDFLESAELDSGGFGKVSLCFHRTQGLMIMKTVYKGPNCIEHNEALLEEAKMMNRLRHSRVVKLLGVIIEEGKYSLVMEYMEKGNLMHVLKAEMSTPLSVKGRIILEIIEGMCYLHGKGVIHKDLKPENILVDNDFHIKIADLGLASFKMWSKLNNEEHNELREVDGTAKKNGGTLYYMAPEHLNDVNAKPTEKSDVYSFAVVLWAIFANKEPYENAICEQQLIMCIKSGNRPDVDDITEYCPREIISLMKLCWEANPEARPTFPGIEEKFRPFYLSQLEESVEEDVKSLKKEYSNENAVVKRMQSLQLDCVAVPSSRSNSATEQPGSLHSSQGLGMGPVEESWFAPSLEHPQEENEPSLQSKLQDEANYHLYGSRMDRQTKQQPRQNVAYNREEERRRRVSHDPFAQQRPYENFQNTEGKGTAYSSAASHGNAVHQPSGLTSQPQVLYQNNGLYSSHGFGTRPLDPGTAGPRVWYRPIPSHMPSLHNIPVPETNYLGNTPTMPFSSLPPTDESIKYTIYNSTGIQIGAYNYMEIGGTSSSLLDSTNTNFKEEPAAKYQAIFDNTTSLTDKHLDPIRENLGKHWKNCARKLGFTQSQIDEIDHDYERDGLKEKVYQMLQKWVMREGIKGATVGKLAQALHQCSRIDLLSSLIYVSQN [RIPK1] | 0.0577 | 48.4 | 48 | -0.114 | 0.9 | 1.82
MQPWHGKAMQRASEAGATAPKASARNARGAPMDPTESPAAPEAALPKAGKFGPARKSGSRQKKSAPDTQERPPVRATGARAKKAPQRAQDTQPSDATSAPGAEGLEPPAAREPALSRAGSCRQRGARCSTKPRPPPGPWDVPSPGLPVSAPILVRRDAAPGASKLRAVLEKLKLSRDDISTAAGMVKGVVDHLLLRLKCDSAFRGVGLLNTGSYYEHVKISAPNEFDVMFKLEVPRIQLEEYSNTRAYYFVKFKRNPKENPLSQFLEGEILSASKMLSKFRKIIKEEINDIKDTDVIMKRKRGGSPAVTLLISEKISVDITLALESKSSWPASTQEGLRIQNWLSAKVRKQLRLKPFYLVPKHAKEGNGFQEETWRLSFSHIEKEILNNHGKSKTCCENKEEKCCRKDCLKLMKYLLEQLKERFKDKKHLDKFSSYHVKTAFFHVCTQNPQDSQWDRKDLGLCFDNCVTYFLQCLRTEKLENYFIPEFNLFSSNLIDKRSKEFLTKQIEYERNNEFPVFDEF [MB21D1] | -1.72 | 52.6 | 53.9 | -0.155 | -0.379 | 1.19
MQRLLFPPLRALKGRQYLPLLAPRAAPRAQCDCIRRPLRPGQYSTISEVALQSGRGTVSLPSKAAERVVGRWLLVCSGTVAGAVILGGVTRLTESGLSMVDWHLIKEMKPPTSQEEWEAEFQRYQQFPEFKILNHDMTLTEFKFIWYMEYSHRMWGRLVGLVYILPAAYFWRKGWLSRGMKGRVLALCGLVCFQGLLGWYMVKSGLEEKSDSHDIPRVSQYRLAAHLGSALVLYCASLWTSLSLLLPPHKLPETHQLLQLRRFAHGTAGLVFLTALSGAFVAGLDAGLVYNSFPKMGESWIPEDLFTFSPILRNVFENPTMVQFDHRILGITSVTAITVLYFLSRRIPLPRRTKMAAVTLLALAYTQVGLGISTLLMYVPTPLAATHQSGSLALLTGALWLMNELRRVPK [COX15] | -0.208 | 56.5 | 57.9 | -0.0819 | -2.54 | -1.54
MQRVSGLLSWTLSRVLWLSGLSEPGAARQPRIMEEKALEVYDLIRTIRDPEKPNTLEELEVVSESCVEVQEINEEEYLVIIRFTPTVPHCSLATLIGLCLRVKLQRCLPFKHKLEIYISEGTHSTEEDINKQINDKERVAAAMENPNLREIVEQCVLEPD [FAM96A] | 0.0285 | 54.9 | 55.3 | 0.184 | 0.017 | -0.983
MQSNKTFNLEKQNHTPRKHHQHHHQQQHHQQQQQQPPPPPIPANGQQASSQNEGLTIDLKNFRKPGEKTFTQRSRLFVGNLPPDITEEEMRKLFEKYGKAGEVFIHKDKGFGFIRLETRTLAEIAKVELDNMPLRGKQLRVRFACHSASLTVRNLPQYVSNELLEEAFSVFGQVERAVVIVDDRGRPSGKGIVEFSGKPAARKALDRCSEGSFLLTTFPRPVTVEPMDQLDDEEGLPEKLVIKNQQFHKEREQPPRFAQPGSFEYEYAMRWKALIEMEKQQQDQVDRNIKEAREKLEMEMEAARHEHQVMLMRQDLMRRQEELRRMEELHNQEVQKRKQLELRQEEERRRREEEMRRQQEEMMRRQQEGFKGTFPDAREQEIRMGQMAMGGAMGINNRGAMPPAPVPAGTPAPPGPATMMPDGTLGLTPPTTERFGQAATMEGIGAIGGTPPAFNRAAPGAEFAPNKRRRY [NONO] | -0.113 | 46.6 | 47.8 | 0.501 | 4.71 | 11.4
MQTFLKGKRVGYWLSEKKIKKLNFQAFAELCRKRGMEVVQLNLSRPIEEQGPLDVIIHKLTDVILEADQNDSQSLELVHRFQEYIDAHPETIVLDPLPAIRTLLDRSKSYELIRKIEAYMEDDRICSPPFMELTSLCGDDTMRLLEKNGLTFPFICKTRVAHGTNSHEMAIVFNQEGLNAIQPPCVVQNFINHNAVLYKVFVVGESYTVVQRPSLKNFSAGTSDRESIFFNSHNVSKPESSSVLTELDKIEGVFERPSDEVIRELSRALRQALGVSLFGIDIIINNQTGQHAVIDINAFPGYEGVSEFFTDLLNHIATVLQGQSTAMAATGDVALLRHSKLLAEPAGGLVGERTCSASPGCCGSMMGQDAPWKAEADAGGTAKLPHQRLGCNAGVSPSFQQHCVASLATKASSQ [ITPK1] | 0.0668 | 51.9 | 51.3 | -0.011 | 0.291 | -1.14
MRALRAGLTLASGAGLGAVVEGWRRRREDARAAPGLLGRLPVLPVAAAAELPPVPGGPRGPGELAKYGLPGLAQLKSRESYVLCYDPRTRGALWVVEQLRPERLRGDGDRRECDFREDDSVHAYHRATNADYRGSGFDRGHLAAAANHRWSQKAMDDTFYLSNVAPQVPHLNQNAWNNLEKYSRSLTRSYQNVYVCTGPLFLPRTEADGKSYVKYQVIGKNHVAVPTHFFKVLILEAAGGQIELRTYVMPNAPVDEAIPLERFLVPIESIERASGLLFVPNILARAGSLKAITAGSK [ENDOG] | 0.34 | 51.8 | – | 0.0884 | 1.54 | 0.994
MRDRTHELRQGDDSSDEEDKERVALVVHPGTARLGSPDEEFFHKVRTIRQTIVKLGNKVQELEKQQVTILATPLPEESMKQELQNLRDEIKQLGREIRLQLKAIEPQKEEADENYNSVNTRMRKTQHGVLSQQFVELINKCNSMQSEYREKNVERIRRQLKITNAGMVSDEELEQMLDSGQSEVFVSNILKDTQVTRQALNEISARHSEIQQLERSIRELHDIFTFLATEVEMQGEMINRIEKNILSSADYVERGQEHVKTALENQKKARKKKVLIAICVSITVVLLAVIIGVTVVG [STX4] | 0.326 | 51.2 | 50.5 | 0.0104 | 0.652 | 0.313
